How the values were obtained:
LNCaP cells = test: JNG assay, co-culture with LNCaP cells; assay type: cell-based; conditions: co-culture with LNCaP
Method in brief: (§1)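 Stable SAR lines in NFAT-GFP Jurkat background; coculture with target line ~4–18 h, E:T ~1:2; flow readout of GFP; positive if %GFP+ exceeds parental line; semi-quantitative grading +/- (~5%) through 5+ (~50%).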

RS;411 = test: JNG assay, co-culture with RS;411 cells; assay type: cell-based; conditions: co-culture with RS411
Method in brief: (§2)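 Jurkat-NFAT-GFP (JNG) cells stably expressing SAR constructs via lentiviral transduction and puromycin/blasticidin selection were cocultured with target cells at E:T ~1:2 for ~4–18 h. NFAT-driven GFP was measured by FACS versus parental JNG cells; scores +/- to 5+ denote ~5–50% GFP-positive cells.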

RAJI-CD19-KO cells = test: JNG assay, co-culture with RAJI-CD19-KO cells; assay type: cell-based; conditions: co-culture with Raji-CD19-KO
Method in brief: as §2

Nalm6 cells = test: JNG assay, co-culture with Nalm6 cells; assay type: cell-based; conditions: co-culture with Nalm6
Method in brief: as §1

L363 cells = test: JNG assay, co-culture with L363 cells; assay type: cell-based; conditions: co-culture with L363
Method in brief: as §2

SKOV3-Luc cells = test: SKOV3 xenograft in NSG mice; conditions: for tumor inhibition / protection, SKOV3 xenograft: 1 × 10^6 SKOV3-Luc s.c., a week later 3 × 10^6 SAR-T i.v.

B1: 22178 (protein)
chain: MALPVTALLLPLALLLHAARPEVQLVESGGGVVQPGRSLRLSCAASGFSFSGYGMHWVRQAPGKGLEWVAYISYDGSNKYYADSVKGRFTISRDNSKNTLYLQMNSLRAEDTAVYYCAKDPAWGLRLGESSSYDFDIWGQGTMVTVSSGTGGGGSGGGGSGGGGSEFDIQMTQSPSSLSASVGDRVTITCKASDHINNWLAWYQQKPGQAPKLLIYGATTLETGVPSRFSGSGSGTDYTLTISSLQPEDFATYYCQQSWNTPWTFGQGTKLEIKRLEDLKNVFPPEVAVFEPSKAEIAHTQKATLVCLATGFYPDHVELSWWVNGKEVHSGVCTDPQPLKEQPALNDSRYCLSSRLRVSATFWQNPRNHFRCQVQFYGLSENDEWTQDRAKPVTQIVSAEAWGRADCGITSASYHQGVLSATILYEILLGKATLYAVLVSALVLMAMVKRKDSRGRAKRSGSGATNFSLLKQAGDVEENPGPTSATMDWIWRILFLVGAATGAHSGPQVQLQESGGGLAQAGGSLRLSCAASGRTFSMGWFRQAPGKEREFVAAITYSGGSPYYASSVRGRFTISRDNAKNTVYLQMNSLKPEDTAVYYCAANPTYGSDWNAENWGQGTQVTVSSGSGGGGSGGGGSGGGGSFEQVQLQQPGAELVKPGASVKMSCKASGYAFSSYWINWMKQKPGQGLEWIGQIYPGDGDTNYNGKFKGRATLTADTSSSTAYMQLSSLTSEDSAVYFCARSITTVVGCAMDYWGQGTSVTVSSTRIQNPDPAVYQLRDSKSSDKSVCLFTDFDSQTNVSQSKDSDVYITDKCVLDMRSMDFKSNSAVAWSNKSDFACANAFNNSIIPEDTFFPSSDVPCDVKLVEKSFETDTNLNFQNLSVIGFRILLLKVAGFNLLMTLRLWSSRAKRSGSGVKQTLNFDLLKLAGDVESNPGPSRGHMTEYKPTVRLATRDDVPRAVRTLAAAFADYPATRHTVDPDRHIERVTELQELFLTRVGLDIGKVWVADDGAAVAVWTTPESVEAGAVFAEIGPRMAELSGSRLAAQQQMEGLLAPHRPKEPAWFLATVGVSPDHQGKGLGSAVVLPGVEAAERAGVPAFLETSAPRNLPFYERLGFTVTADVEVPEGPRTWCMTRKPGA
For B1, the “NFAT-GFP ASSAY: LNCaP” value (LNCaP cells) was 5+ (refer to approximately 5%, 10%, 20%, 30%, 40% and 50% GFP positive cells), the “NFAT-GFP ASSAY: RS411” value (RS;411) was “+ (refer to approximately 5%, 10%, 20%, 30%, 40% and 50% GFP positive cells)” and the “NFAT-GFP ASSAY: Raji-CD19-KO” value (RAJI-CD19-KO cells) was 5+ (refer to approximately 5%, 10%, 20%, 30%, 40% and 50% GFP positive cells). For the same molecule, the “NFAT-GFP ASSAY: Nalm6” value (Nalm6 cells) was 5+ (refer to approximately 5%, 10%, 20%, 30%, 40% and 50% GFP positive cells) and the “NFAT-GFP ASSAY: L363” value (L363 cells) was “+/- (refer to approximately 5%, 10%, 20%, 30%, 40% and 50% GFP positive cells)”.

B2: 10315 (protein)
chain: MALPVTALLLPLALLLHAARPDIQMTQSPSSLSASVGDRVTITCKSSQSLLYSSNQKNYLAWFQQKPGKAPKLLIYWASTRESGVPSRFSGSGSGTDFTLTISSLQPEDFATYFCHQYLSSYTFGQGTKVEIKRLEDLKNVFPPEVAVFEPSEAEISHTQKATLVCLATGFYPDHVELSWWVNGKEVHSGVCTDPQPLKEQPALNDSRYCLSSRLRVSATFWQNPRNHFRCQVQFYGLSENDEWTQDRAKPVTQIVSAEAWGRADCGFTSESYQQGVLSATILYEILLGKATLYAVLVSALVLMAMVKRKDSRGRAKRSGSGATNFSLLKQAGDVEENPGPTSMDWIWRILFLVGAATGAHSFEEVQLVESGGGLVQPGGSLRLSCAASGYTFTSYWLHWVRQAPGKGLEWVGYIRPSTGYTEYNQKFKDRFTISADTSKNTAYLQMNSLRAEDTAVYYCARSRWLLDYWGQGTLVTVSSTRIQNPDPAVYQLRDSKSSDKSVCLFTDFDSQTNVSQSKDSDVYITDKCVLDMRSMDFKSNSAVAWSNKSDFACANAFNNSIIPEDTFFPSPESSCDVKLVEKSFETDTNLNFQNLSVIGFRILLLKVAGFNLLMTLRLWSS
modifications: Synthetic Polynucloetide
In the case of B2, the “tumor inhibition / protection, SKOV3 xenograft” value (“tumor inhibition / protection” below) (SKOV3-Luc cells) is reported as “tumor inhibition” and the “survival, SKOV3 xenograft” value (SKOV3-Luc cells; mouse, in vivo) is reported as “improvement in survival”.

B3: 10518 (protein)
chain: MALPVTALLLPLALLLHAARPEVQLVESGGGLVQPGGSLRLSCAASGYTFSDYFMSWVRQAPGKGLEWVATISNGGTYTYYPDSVKGRFTISRDNSKNTLYLQMNSLRAEDTAVYYCARFDGYIFDYWGQGTLVTVSSGGGGSGGGGSGGGGSDIQMTQSPSSLSASVGDRVTITCRASQDISNYLNWYQQKPGKAPKLLIYYTSRLHSGVPSRFSGSGSGTDFTLTISSLQPEDFATYYCQQGNTLPYTFGQGTKVEIKRTREQKLISEEDLAKPTTTPAPRPPTPAPTIASQPLSLRPEACRPAAGGAVHTRGLDFACDIYIWAPLAGTCGVLLLSLVITLYCKRGRKKLLYIFKQPFMRPVQTTQEEDGCSCRFPEEEEGGCELRVKFSRSADAPAYQQGQNQLYNELNLGRREEYDVLDKRRGRDPEMGGKPRRKNPQEGLYNELQKDKMAEAYSEIGMKGERRRGKGHDGLYQGLSTATKDTYDALHMQALPPR
modifications: Synthetic Polynucloetide
B3 was tested, and the “tumor inhibition / protection” value (SKOV3-Luc cells) was “weak protection”.

B4: 10656 (protein)
chain: MALPVTALLLPLALLLHAARPEVQLVESGGGLVQPGGSLRLSCAASGFTFSDYFMSWVRQAPGKGLEWVATISNGGTYTYYPDSVKGRFTISRDNSKNTLYLQMNSLRAEDTAVYYCARFDGYIFDYWGQGTLVTVSSGGGGSGGGGSGGGGSDIQMTQSPSSLSASVGDRVTITCRASQDISNYLNWYQQKPGKAPKLLIYYTSRLHSGVPSRFSGSGSGTDFTLTISSLQPEDFATYYCQQGNTLPWTFGQGTKVEIKRTREQKLISEEDLAKPTTTPAPRPPTPAPTIASQPLSLRPEACRPAAGGAVHTRGLDFACDIYIWAPLAGTCGVLLLSLVITLYCKRGRKKLLYIFKQPFMRPVQTTQEEDGCSCRFPEEEEGGCELRVKFSRSADAPAYQQGQNQLYNELNLGRREEYDVLDKRRGRDPEMGGKPRRKNPQEGLYNELQKDKMAEAYSEIGMKGERRRGKGHDGLYQGLSTATKDTYDALHMQALPPR
modifications: Synthetic Polynucloetide
In the case of B4, the “tumor inhibition / protection” value (SKOV3-Luc cells) is reported as “weak protection”.

B5: 10587 (protein)
chain: MALPVTALLLPLALLLHAARPEVQLVESGGGLVQPGGSLRLSCAASGFTFSDYFMSWVRQAPGKGLEWVATISNGGTYTYYPDSVKGRFTISRDNSKNTLYLQMNSLRAEDTAVYYCARFDGYIFDYWGQGTLVTVSSGGGGSGGGGSGGGGSDIQMTQSPSSLSASVGDRVTITCRASQDISSYLNWYQQKPGKAPKLLIYYTSRLHSGVPSRFSGSGSGTDFTLTISSLQPEDFATYYCQQGNTLPYTFGQGTKVEIKRTREQKLISEEDLAKPTTTPAPRPPTPAPTIASQPLSLRPEACRPAAGGAVHTRGLDFACDIYIWAPLAGTCGVLLLSLVITLYCKRGRKKLLYIFKQPFMRPVQTTQEEDGCSCRFPEEEEGGCELRVKFSRSADAPAYQQGQNQLYNELNLGRREEYDVLDKRRGRDPEMGGKPRRKNPQEGLYNELQKDKMAEAYSEIGMKGERRRGKGHDGLYQGLSTATKDTYDALHMQALPPR
modifications: Synthetic Polynucloetide
In the case of B5, the “tumor inhibition / protection” value (SKOV3-Luc cells) is reported as “weak protection”.

Reference: patent US20230212319A1, “NOVEL ANTIGEN BINDING DOMAINS AND SYNTHETIC ANTIGEN RECEPTORS INCORPORATING THE SAME” (University of Southern California, priority 2020, published 2023)
